Test results as given in publication PMC10196373, “Conformational analysis and interaction of the Staphylococcus aureus transmembrane peptidase AgrB with its AgrD propeptide substrate” (Frontiers in Chemistry, 2023).

B1: AgrD1 with C-terminal LgBiT (agrDCL) (peptide)
chain: MNTLFNLFFDFITGILKNIGNIAAYSTCDFIMDEVEVPKELTQLHE
notes: AgrD1 pro-peptide of S. aureus agr group 1; PCR-amplified agrD1 put in place of agrB1 in the split luciferase plasmid; A 16 amino acid flexible linker joins AgrD and LgBiT; also called pAgrDCL; AgrD-LgBit; source: S. aureus SH1000, from the agr P2 promoter on low copy plasmid pSK5630, in live cells; not shown: LgBiT (NanoBiT), C-terminal, kept
B2: T7-AgrD1, AIP pro-peptide AgrD1 with a 14 residue T7 epitope leader tag (peptide)
peptide: MNTLFNLFFDFITGILKNIGNIAAYSTCDFIMDEVEVPKELTQLHE
notes: AgrD1 pro-peptide of S. aureus agr group 1; also called AgrD-T7; T7-tagged AgrD; source: synthetic peptide (solid phase synthesis), bought: CS Bio

Tests used:
[1] = biological target: T1, AgrB1 with C-terminal SmBiT (agrBCS) (Staphylococcus aureus, UniProt P0C1P7 1-189); experiment: split reporter (BiFC, NanoBiT); live S. aureus SH1000 cells; one tagged fusion on the chromosome (attB2), the other on a low copy plasmid, both from the agr P2 promoter; cells at OD600 1.0, Nano-Glo live cell reagent (furimazine), bioluminescence (RLU); settings: partners not purified
T1 construct: AgrB1, transmembrane peptidase of S. aureus agr group 1; agrB1 gene amplified with its upstream P2 promoter; A 16 amino acid flexible linker joins AgrB and SmBiT; also called AgrB-SmBiT; pSK-P2-agrBCS; source: S. aureus SH1000, from the agr P2 promoter, chromosomal (attB2) or on low copy plasmid pSK5630, in live cells; not shown: SmBiT (NanoBiT), C-terminal, kept
T1 sequence: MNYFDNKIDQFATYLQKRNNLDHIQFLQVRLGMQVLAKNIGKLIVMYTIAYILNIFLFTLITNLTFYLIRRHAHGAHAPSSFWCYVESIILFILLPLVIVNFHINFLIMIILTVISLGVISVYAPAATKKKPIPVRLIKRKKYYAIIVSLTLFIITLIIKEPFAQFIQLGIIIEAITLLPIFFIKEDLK

[2] = biological target: the molecule itself; experiment: new band of the complex on Tris-glycine gel, Western blot; purified AgrB with DOPG (1 mg/mL) incubated with T7-AgrD1 (2 uM) 30 min at 37 C in 20 mM Tris-HCl pH 7.5, 5 mM MgSO4; heated to 55 C for 5 min in SDS sample buffer, 14% Tris-glycine gel without SDS; blots probed with an AgrB nanobody or an anti-T7 antibody

Binder | luminescent signal relative to the other constructs [1] [times] | binding result [2]
B1 | > 10 | 
B2 |  | binds
